Measurements as given in patent US20100048482.

Biological target: heat shock protein 90 (HSP90), endogenous, rat heart, P82995

B1: epsilon protein kinase C (εPKC), endogenous, rat heart (protein)
chain: MVVFNGLLKIKICEAVSLKPTAWSLRHAVGPRPQTFLLDPYIALNVDDSRIGQTATKQKTNSPAWHDEFVTDVCNGRKIELAVFHDAPIGYDDFVANCTIQFEELLQNGSRHFEDWIDLEPEGKVYVIIDLSGSSGEAPKDNEERVFRERMRPRKRQGAVRRRVHQVNGHKFMATYLRQPTYCSHCRDFIWGVIGKQGYQCQVCTCVVHKRCHELIITKCAGLKKQETPDEVGSQRFSVNMPHKFGIHNYKVPTFCDHCGSLLWGLLRQGLQCKVCKMNVHRRCETNVAPNCGVDARGIAKVLADLGVTPDKITNSGQRRKKLAAGAESPQPASGNSPSEDDRSKSAPTSPCDQELKELENNIRKALSFDNRGEEHRASSSTDGQLASPGENGEVRQGQAKRLGLDEFNFIKVLGKGSFGKVMLAELKGKDEVYAVKVLKKDVILQDDDVDCTMTEKRILALARKHPYLTQLYCCFQTKDRLFFVMEYVNGGDLMFQIQRSRKFDEPRSGFYAAEVTSALMFLHQHGVIYRDLKLDNILLDAEGHSKLADFGMCKEGILNGVTTTTFCGTPDYIAPEILQELEYGPSVDWWALGVLMYEMMAGQPPFEADNEDDLFESILHDDVLYPVWLSKEAVSILKAFMTKNPHKRLGCVAAQNGEDAIKQHPFFKEIDWVLLEQKKMKPPFKPRIKTKRDVNNFDQDFTREEPILTLVDEAIVKQINQEEFKGFSYFGEDLMP
CPK release into the effluent during reperfusion, hearts perfused with ψεHSP90 peptide (1 µM): perfusion with ψεHSP90 peptide decreased CPK release by 47%
